The values that follow are results of earlier work, collected in paper PMC6515277.

Where two headings read alike, the source gives them in different places.

Data set [1] addresses merlin CTD CTD (Homo sapiens) (UniProt P35240). Description: ITC. Background: Isothermal titration calorimetry measures the heat released or taken up as one component is titrated into another.
Data set [2] shares this target. The data set is described as follows: ITC. This is another data set of the same source.

On to merlin FERM FERM (from UniProt P35240), for which the dissociation constant (Kd) in data set [1] and in data set [2] was 4 µM throughout.

Usually Kd stands for the free concentration of one partner at which half of the binding sites on the other are occupied at equilibrium, for simple one-to-one binding.
